Source: IntAct's records for PubMed 18387954

B1: Src substrate cortactin (Homo sapiens), Q14247 (parent)
chain: MWKASAGHAVSIAQDDAGADDWETDPDFVNDVSEKEQRWGAKTVQGSGHQEHINIHKLRENVFQEHQTLKEKELETGPKASHGYGGKFGVEQDRMDKSAVGHEYQSKLSKHCSQVDSVRGFGGKFGVQMDRVDQSAVGFEYQGKTEKHASQKDYSSGFGGKYGVQADRVDKSAVGFDYQGKTEKHESQRDYSKGFGGKYGIDKDKVDKSAVGFEYQGKTEKHESQKDYVKGFGGKFGVQTDRQDKCALGWDHQEKLQLHESQKDYKTGFGGKFGVQSERQDSAAVGFDYKEKLAKHESQQDYSKGFGGKYGVQKDRMDKNASTFEDVTQVSSAYQKTVPVEAVTSKTSNIRANFENLAKEKEQEDRRKAEAERAQRMAKERQEQEEARRKLEEQARAKTQTPPVSPAPQPTEERLPSSPVYEDAASFKAELSYRGPVSGTEPEPVYSMEAADYREASSQQGLAYATEAVYESAEAPGHYPAEDSTYDEYENDLGITAVALYDYQAAGDDEISFDPDDIITNIEMIDDGWWRGVCKGRYGLFPANYVELRQ
partner: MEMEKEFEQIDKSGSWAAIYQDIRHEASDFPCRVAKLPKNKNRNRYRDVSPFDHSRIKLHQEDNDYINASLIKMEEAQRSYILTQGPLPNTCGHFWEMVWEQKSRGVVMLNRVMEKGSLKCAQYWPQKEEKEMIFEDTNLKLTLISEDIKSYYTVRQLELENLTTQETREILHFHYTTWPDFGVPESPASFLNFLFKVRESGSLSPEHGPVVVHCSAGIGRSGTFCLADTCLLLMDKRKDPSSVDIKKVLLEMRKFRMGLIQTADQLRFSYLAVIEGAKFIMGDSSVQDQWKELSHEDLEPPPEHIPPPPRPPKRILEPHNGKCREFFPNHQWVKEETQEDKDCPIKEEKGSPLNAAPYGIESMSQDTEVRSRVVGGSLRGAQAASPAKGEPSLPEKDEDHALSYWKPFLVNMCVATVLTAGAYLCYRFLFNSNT

Variants of: B1
Details: with ptn1_human PTPN1, P18031

effect of a mutation on the interaction	Variant
disrupting interaction	Y446F
